Experiment: yeast display, Sf9 membrane polyspecificity reagent, FACS + sequencing; frameworks hold sequencing errors
How it was run: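 Genes from sorted yeast were amplified by colony PCR, read by MiSeq 2 × 250 sequencing and filtered on CDR length. These cells carried a synthetic nanobody library in Saccharomyces cerevisiae BJ5465 and were sorted by FACS into low and high (top ~1%) gates on anti-HA and streptavidin fluorescence. Polyreactivity is labelled according to the gate of origin.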

| Sequence | polyreactivity (PSR sort gate) |
| --- | --- |
| QVQLVESGGGLVQAGGSLRLSCAASGFILGVYAMGWYRQAPGKERELVAAISKSGDSTYYADSVKGRFTISRDNAKNTVYLLMNSLKPEDTAVYYCNADWSWYNYYDFDYWGQGTQVTVSS | low polyreactivity |
| QVQLVESGGGLVQAGGSLRLSCAASGFILIRNGMGCYRQAPGKERELVAAISRSGRTYYADSVKGRFTISRDNAKNTVYLQMNSLKPEDTAVYYCAKRDYLYGRYDYSGQGTQVTVSS | high polyreactivity |
| QVQLVESGGGLVQAGGSLRLSCAASGFILKYYAMGWYRQAPGKERELVAAISWSGGSTYYADSVKGRFTISRDNAKNTVYLQMNSLKPEVTAVYYCNAYYVYNSLGYWGQGTQVTVSS | high polyreactivity |
| QVQLVESGGGLVQAGGSLRLSCAASGFILLDNAMGRYRQAPVKEREFVASINISGDRTFYADSVKGRFTISRDNAKNTVYLQMNSLKPEDTAVYYCAKEPGLGRRSTTAYDYWGQGTQVTVSS | low polyreactivity |
| QVQLVESGGGLVQAGGSLRLSCAASGFILNKNVMGWYRQAPGKERELVAAITASGSSTYYADSVKGRFTISRDNAKNTVYLQMNSLKPEDTAVYYCAARGYWSSYAPRFNYWVQGTQVTVSS | high polyreactivity |
| QVQLVESGGGLVQAGGSLRLSCAASGFILPNYTMGWYRQAPGKERELVAAISRGGSTNYADSVKGRFTISRDNAKNTVYLQMNSLKPEDTAVYYCAVDAWTGESYWEHYYWGQGTQVTVSS | low polyreactivity |
| QVQLVESGGGLVQAGGSLRLSCAASGFILQTYAMGWYRQAPGKERELVAAITSGARTYYADSVKGRFTISRDNAKNTVYLQMNSLKPEDTAVYYCAASIWLYRYYYWGQGTQVTVSS | high polyreactivity |
| QVQLVESGGGLVQAGGSLRLSCAASGFILRAYAMGWYRQAPGKEREFVAAITRRGGSTYYADSVKGRFTISRDNAKNTVYLQMNSLKPEDTAVYYCAAKFFSSPHNLGYWGQGTQVTVSS | high polyreactivity |
| QVQLVESGGGLVQAGGSLRLSCAASGFILRAYAMGWYRQAPGKERELVAAITSATSTNYADSVKGRFTISRDNAKNTVYLQMNSLKPEDTAVYYCAADGGGGEFSYDSWGQGTQVTVSS | low polyreactivity |
| QVQLVESGGGLVQAGGSLRLSCAASGFILRIYTMGWYRQAPGKERELVAAINWSGGRTYYADSVKGRFTISRDNAKNTVYLHMNSLKPEDTAVYYCAAVYGVSVSKYYYWGQGTQVTVSS | high polyreactivity |
| QVQLVESGGGLVQAGGSLRLSCAASGFILRRYTMGWYRQAPGKEREFVAGISWRGGSTYYADSVKGRFTISRDNAKNTVYLQMNSLKPEDTAVYYCAAETYQLTWVLYYYWGQGTQVTVSS | high polyreactivity |
| QVQLVESGGGLVQAGGSLRLSCAASGFILRTNAMGWYRQAPGKERELVAAISVSGGRTYYADSVKGRFTISRDNAKNTVYLQMNSLKPEDTAVYYCAARDSTKLLSGYTHYYWGQGTQVTVSS | high polyreactivity |
| QVQLVESGGGLVQAGGSLRLSCAASGFILRYYAMGWYRQAPGKERELVAAITRGGSTYDADSVKGRFTISRDNAKNTVYLQMNSLKPEDTAVYYFDRRVGYKFSYDYWGQGTQVTVSS | high polyreactivity |
| QVQLVESGGGLVQAGGSLRLSCAASGFILYGNAMGLYRQAPGKERELVAAISRRGGSTYYADSVKGRFTISRDNAKNTVYLQMNSLKPEDTAVYYCAKDGPGGGTRIYEYWGQGTLVTVSS | high polyreactivity |
| QVQLVESGGGLVQAGGSLRLSCAASGFILYRYAMGWYRQAPGKERELVAAISSGGRTYYADSVKGRFTISRDNAKNTVYLQMNSLKPEDTAVYYCNAAYKNSPYDYWGQGTQVTVSS | high polyreactivity |
| QVQLVESGGGLVQAGGSLRLSCAASGFILYSYAMGWYRQAPGKERELVAAINSTGSTYYADSVKGRFTISRDNAKNTVYLQMNSLKPEDTAVYYCATDPWYQTDHSYDTPYYYWGQGTQVTVSS | low polyreactivity |
| QVQLVESGGGLVQAGGSLRLSCAASGFILYTYAMGWYRQAPGKERELVADIDSGDGTYYADSVKGRFTISRDNAKNTVYLQMNSLKPEDTAVYYCAAQVVTWSYVYDVPGYYRYDYWGQGTQVTVSS | low polyreactivity |
| QVQLVESGGGLVQAGGSLRLSCAASGFILYYYAMGWYRQAPGKERELVAAISWSGDSTYYADSVKGRFTISRDNAKNTVYLQMNSLKPEDTAVYYCAATWQLTHRYYWGQGTQVTVSS | low polyreactivity |
| QVQLVESGGGLVQAGGSLRLSCAASGFIRTYAMGWYRQAPGKERELVAAITSSGGRTYYADSVKGRFTISRDNAKNTVYLQMNSLKPEDTAVYYCAAGLGRYLRYNYWGQGTQVTVSS | high polyreactivity |
| QVQLVESGGGLVQAGGSLRLSCAASGFISAYYAMGWYRQAPAKERELVAGINSNGGSTYYADSVKGRFTISRDNAKNTVYLQMNSLKPEDTAVYYCNKRYRHLYYKSVGSYDYWGQGTQVTVSS | high polyreactivity |
| QVQLVESGGGLVQAGGSLRLSCAASGFISDGNYMGWYRQAPGKERELVAAISSGATTHYADSVKGRFTISRDNAKNTVYLQMNSLKPEDTAVYYCNRGDDWRYDYWGQGTQVTVSS | low polyreactivity |
| QVQLVESGGGLVQAGGSLRLSCAASGFISHKYAMGWYRHAHGKERELVAAISWSGTSTHYADSVKGRFTISRDNAKKTVYIQMKSLKPEDTAVYYCAARRYPVLKYDYWGEGTQVTVSS | high polyreactivity |

| Sequence | polyreactivity (PSR sort gate) |
| --- | --- |
| QVQLVESGGGLVQAGGSLRLSCAASGFISKYYAMGRYRQAPGKERELVASISRDGSTSYADSVKGRFTISRDNAKNTVYLQMNSLKPEDTAVYYCAAPSYRTRYYYWGQGTQVTVSS | high polyreactivity |
| QVQLVESGGGLVQAGGSLRLSCAASGFISKYYAMGWSRQAPGKERELVASISRDGSTSYADSVKGRFTISRDNAKNTVYLQMNSLKPEDTAVYYCAAPRRWGDKYSFGYWGQGTQVTVSS | high polyreactivity |
| QVQLVESGGGLVQAGGSLRLSCAASGFISKYYAMGWYRQAPGKERELVASISRDGSTSYADSVKGRFTISRDNAKNTVYLQMNSLKPEDTAVYYCAAPSYRTRYYYWGQGTQVTVSS | high polyreactivity |
| QVQLVESGGGLVQAGGSLRLSCAASGFISPPYAMGWYRQAPGKVMELVAAISSNGGRTSYADSVKGRFTISRDNAKNTVYLQMNSLKPEDTAVYYCNAVYSLYYTRYNYWGQGTQETVSS | high polyreactivity |
| QVQLVESGGGLVQAGGSLRLSCAASGFISPQNTMGWYRQAPGKERELVAAITSGGSTYYADSVKGRFTISRDNAKNTVYLQMNSLKPEDTAVYYCAARPYGTWTYGYWGQGTQVTVSS | low polyreactivity |
| QVQLVESGGGLVQAGGSLRLSCAASGFISRFNSMGWYRKAPGKERELVAAISWYGGITYYADSVKGRFTISRDNAKNTVYLQMNSLKPEDTAVYYCNAGDHIRKRYGISATWGYGYGYWGQGTQVTVSS | high polyreactivity |
| QVQLVESGGGLVQAGGSLRLSCAASGFISRNAMGWYRQAPGKQRELVAGITRGGSTNYADSVKGRFTISRDNAKNTVYLHMNSLKPEYTAVYYFATRRRLKGLAYDYWGQGNQVTVSS | high polyreactivity |
| QVQLVESGGGLVQAGGSLRLSCAASGFISSENAMGWYRQAPGKERELVAAISSGGSTNYADSVKGRFTISRDNAKNTVYLQMNSLKPEDTAVYYCAATLPGWYNEDDSWGQGTQVNVSS | low polyreactivity |
| QVQLVESGGGLVQAGGSLRLSCAASGFISVRNAMGWYRQAPGKERELVAAISSGDTTDYADSVKGRFTISRDNAKNTVYLQMISLKPEDTAVYYCAAVYYGRYYYWGQGTQVTVSS | low polyreactivity |
| QVQLVESGGGLVQAGGSLRLSCAASGFIVKYNAMAWYRQAPGKERELVAAISYRGTRTYYADSVKGRFTISRDNAKNTVYLQMNSLKPEDTAVYYCNAGLTYNHDPYDYWGQGTQVTVSS | high polyreactivity |
| QVQLVESGGGLVQAGGSLRLSCAASGFIYGANAMGWYRQAPGKERALVAAISWNGGRTYYADSVKGRFTISRDNAKKTVYLQMNSLKPEDTAVYYCNARSWYSFQPQDYWGQGTQVTVSW | high polyreactivity |
| QVQLVESGGGLVQAGGSLRLSCAASGFIYGSNAMGWYRQAPGKERELVAAISRSGGSTYYADSVKGRFTISRDNAKNTVYLQMNSLKPEDTAVYYCNVDLWTFVYSWWSYDYWGQGTQVTVSS | high polyreactivity |
| QVQLVESGGGLVQAGGSLRLSCAASGFIYRDYVMGWYRQAPEKERELVAAISYRGGSTNYADSVKGRFTISRDNAMNTVFLQMNSLKPEDTSVYYCAADQVHKREYEYWGQGTQVTVSS | low polyreactivity |
| QVQLVESGGGLVQAGGSLRLSCAASGFIYVYAMGWYRQPPRKERELVAAITATGDSTYYADSVKGRFTISRDNAKNTVYLQMNSLKPEDTAVYYCAAEWHYFVTMYYWGQGTQVTVSS | low polyreactivity |
| QVQLVESGGGLVQAGGSLRLSCAASGFIYYRYAMGWYRQAPGKERELVAAISRSGGSTYYADSVKGRFTISRDNAKNTVYLQMNSLNPEDTAVYYCAARDPGGAVGAAFDSWGQCTQVTVSS | low polyreactivity |
| QVQLVESGGGLVQAGGSLRLSCAASGFLFYYYAMGWYRQAPGKEREFVAAIRWNGGSTYYADSVKGRFTISRDNAKNTVYLQMNSLKPEDTAVYYCAAVWVQTTYADLYKYYYWGQGTQVTVSS | low polyreactivity |
| QVQLVESGGGLVQAGGSLRLSCAASGFMFDGYAMGWYRQAPGKERELVAAINFSGGSTYYADSVKGRFTISRDNAKNTVYLQMNSLKPEETAVYYCNADLEWNWVQFGYGYWGQGTQVTVSS | low polyreactivity |
| QVQLVESGGGLVQAGGSLRLSCAASGFMFSSYAMGWYRQAPGKERELVAAISWSDSSTYYADSVKGRFTISRDNAKNTVYLQMNSLKPEDTADYYCAAVIGPDVYYLLYDYWGQGTQVTVSS | low polyreactivity |
| QVQLVESGGGLVQAGGSLRLSCAASGFNFDYYAMGWYRPAPGKVRELVAAITSRGGSTYYADSVKGRFTISRDNAKTTVYLQMNILKPEDTAVYYCSALRRSAEYNYWGQGTQVTVSS | high polyreactivity |
| QVQLVESGGGLVQAGGSLRLSCAASGFNFGGNAMGWYRQAPGKERELVAAISGSGGSTYYADSVKGRFTISRDNAKNTVYLQMNSLKPEDTAVYYCAVKFPPRKSYGYYYWGQGTQVTVSS | high polyreactivity |
| QVQLVESGGGLVQAGGSLRLSCAASGFNFRGYAMGWYRQAPGKERELVAAINSGDSTNYADSVKGRFTISRDNAKNTVYLQMNSLKPEDTAVYYCAASIYAALNGGPGYDYWGQGTQVTVSS | low polyreactivity |
